# Assays:
# [1] = target: low-density lipoprotein (LDL) receptor-related protein-1 (LRP1) (rat (endogenous in PC12 cells and primary DRG neurons)) (UniProt G3V928)
# [2] = target: low-density lipoprotein (LDL) receptor-related protein-1 (LRP1) (rat (endogenous in PC12 cells and primary DRG neurons)) (UniProt G3V928); remark: listed apart in the source
# Chain of UniProt G3V928 (G3V928 20-4545): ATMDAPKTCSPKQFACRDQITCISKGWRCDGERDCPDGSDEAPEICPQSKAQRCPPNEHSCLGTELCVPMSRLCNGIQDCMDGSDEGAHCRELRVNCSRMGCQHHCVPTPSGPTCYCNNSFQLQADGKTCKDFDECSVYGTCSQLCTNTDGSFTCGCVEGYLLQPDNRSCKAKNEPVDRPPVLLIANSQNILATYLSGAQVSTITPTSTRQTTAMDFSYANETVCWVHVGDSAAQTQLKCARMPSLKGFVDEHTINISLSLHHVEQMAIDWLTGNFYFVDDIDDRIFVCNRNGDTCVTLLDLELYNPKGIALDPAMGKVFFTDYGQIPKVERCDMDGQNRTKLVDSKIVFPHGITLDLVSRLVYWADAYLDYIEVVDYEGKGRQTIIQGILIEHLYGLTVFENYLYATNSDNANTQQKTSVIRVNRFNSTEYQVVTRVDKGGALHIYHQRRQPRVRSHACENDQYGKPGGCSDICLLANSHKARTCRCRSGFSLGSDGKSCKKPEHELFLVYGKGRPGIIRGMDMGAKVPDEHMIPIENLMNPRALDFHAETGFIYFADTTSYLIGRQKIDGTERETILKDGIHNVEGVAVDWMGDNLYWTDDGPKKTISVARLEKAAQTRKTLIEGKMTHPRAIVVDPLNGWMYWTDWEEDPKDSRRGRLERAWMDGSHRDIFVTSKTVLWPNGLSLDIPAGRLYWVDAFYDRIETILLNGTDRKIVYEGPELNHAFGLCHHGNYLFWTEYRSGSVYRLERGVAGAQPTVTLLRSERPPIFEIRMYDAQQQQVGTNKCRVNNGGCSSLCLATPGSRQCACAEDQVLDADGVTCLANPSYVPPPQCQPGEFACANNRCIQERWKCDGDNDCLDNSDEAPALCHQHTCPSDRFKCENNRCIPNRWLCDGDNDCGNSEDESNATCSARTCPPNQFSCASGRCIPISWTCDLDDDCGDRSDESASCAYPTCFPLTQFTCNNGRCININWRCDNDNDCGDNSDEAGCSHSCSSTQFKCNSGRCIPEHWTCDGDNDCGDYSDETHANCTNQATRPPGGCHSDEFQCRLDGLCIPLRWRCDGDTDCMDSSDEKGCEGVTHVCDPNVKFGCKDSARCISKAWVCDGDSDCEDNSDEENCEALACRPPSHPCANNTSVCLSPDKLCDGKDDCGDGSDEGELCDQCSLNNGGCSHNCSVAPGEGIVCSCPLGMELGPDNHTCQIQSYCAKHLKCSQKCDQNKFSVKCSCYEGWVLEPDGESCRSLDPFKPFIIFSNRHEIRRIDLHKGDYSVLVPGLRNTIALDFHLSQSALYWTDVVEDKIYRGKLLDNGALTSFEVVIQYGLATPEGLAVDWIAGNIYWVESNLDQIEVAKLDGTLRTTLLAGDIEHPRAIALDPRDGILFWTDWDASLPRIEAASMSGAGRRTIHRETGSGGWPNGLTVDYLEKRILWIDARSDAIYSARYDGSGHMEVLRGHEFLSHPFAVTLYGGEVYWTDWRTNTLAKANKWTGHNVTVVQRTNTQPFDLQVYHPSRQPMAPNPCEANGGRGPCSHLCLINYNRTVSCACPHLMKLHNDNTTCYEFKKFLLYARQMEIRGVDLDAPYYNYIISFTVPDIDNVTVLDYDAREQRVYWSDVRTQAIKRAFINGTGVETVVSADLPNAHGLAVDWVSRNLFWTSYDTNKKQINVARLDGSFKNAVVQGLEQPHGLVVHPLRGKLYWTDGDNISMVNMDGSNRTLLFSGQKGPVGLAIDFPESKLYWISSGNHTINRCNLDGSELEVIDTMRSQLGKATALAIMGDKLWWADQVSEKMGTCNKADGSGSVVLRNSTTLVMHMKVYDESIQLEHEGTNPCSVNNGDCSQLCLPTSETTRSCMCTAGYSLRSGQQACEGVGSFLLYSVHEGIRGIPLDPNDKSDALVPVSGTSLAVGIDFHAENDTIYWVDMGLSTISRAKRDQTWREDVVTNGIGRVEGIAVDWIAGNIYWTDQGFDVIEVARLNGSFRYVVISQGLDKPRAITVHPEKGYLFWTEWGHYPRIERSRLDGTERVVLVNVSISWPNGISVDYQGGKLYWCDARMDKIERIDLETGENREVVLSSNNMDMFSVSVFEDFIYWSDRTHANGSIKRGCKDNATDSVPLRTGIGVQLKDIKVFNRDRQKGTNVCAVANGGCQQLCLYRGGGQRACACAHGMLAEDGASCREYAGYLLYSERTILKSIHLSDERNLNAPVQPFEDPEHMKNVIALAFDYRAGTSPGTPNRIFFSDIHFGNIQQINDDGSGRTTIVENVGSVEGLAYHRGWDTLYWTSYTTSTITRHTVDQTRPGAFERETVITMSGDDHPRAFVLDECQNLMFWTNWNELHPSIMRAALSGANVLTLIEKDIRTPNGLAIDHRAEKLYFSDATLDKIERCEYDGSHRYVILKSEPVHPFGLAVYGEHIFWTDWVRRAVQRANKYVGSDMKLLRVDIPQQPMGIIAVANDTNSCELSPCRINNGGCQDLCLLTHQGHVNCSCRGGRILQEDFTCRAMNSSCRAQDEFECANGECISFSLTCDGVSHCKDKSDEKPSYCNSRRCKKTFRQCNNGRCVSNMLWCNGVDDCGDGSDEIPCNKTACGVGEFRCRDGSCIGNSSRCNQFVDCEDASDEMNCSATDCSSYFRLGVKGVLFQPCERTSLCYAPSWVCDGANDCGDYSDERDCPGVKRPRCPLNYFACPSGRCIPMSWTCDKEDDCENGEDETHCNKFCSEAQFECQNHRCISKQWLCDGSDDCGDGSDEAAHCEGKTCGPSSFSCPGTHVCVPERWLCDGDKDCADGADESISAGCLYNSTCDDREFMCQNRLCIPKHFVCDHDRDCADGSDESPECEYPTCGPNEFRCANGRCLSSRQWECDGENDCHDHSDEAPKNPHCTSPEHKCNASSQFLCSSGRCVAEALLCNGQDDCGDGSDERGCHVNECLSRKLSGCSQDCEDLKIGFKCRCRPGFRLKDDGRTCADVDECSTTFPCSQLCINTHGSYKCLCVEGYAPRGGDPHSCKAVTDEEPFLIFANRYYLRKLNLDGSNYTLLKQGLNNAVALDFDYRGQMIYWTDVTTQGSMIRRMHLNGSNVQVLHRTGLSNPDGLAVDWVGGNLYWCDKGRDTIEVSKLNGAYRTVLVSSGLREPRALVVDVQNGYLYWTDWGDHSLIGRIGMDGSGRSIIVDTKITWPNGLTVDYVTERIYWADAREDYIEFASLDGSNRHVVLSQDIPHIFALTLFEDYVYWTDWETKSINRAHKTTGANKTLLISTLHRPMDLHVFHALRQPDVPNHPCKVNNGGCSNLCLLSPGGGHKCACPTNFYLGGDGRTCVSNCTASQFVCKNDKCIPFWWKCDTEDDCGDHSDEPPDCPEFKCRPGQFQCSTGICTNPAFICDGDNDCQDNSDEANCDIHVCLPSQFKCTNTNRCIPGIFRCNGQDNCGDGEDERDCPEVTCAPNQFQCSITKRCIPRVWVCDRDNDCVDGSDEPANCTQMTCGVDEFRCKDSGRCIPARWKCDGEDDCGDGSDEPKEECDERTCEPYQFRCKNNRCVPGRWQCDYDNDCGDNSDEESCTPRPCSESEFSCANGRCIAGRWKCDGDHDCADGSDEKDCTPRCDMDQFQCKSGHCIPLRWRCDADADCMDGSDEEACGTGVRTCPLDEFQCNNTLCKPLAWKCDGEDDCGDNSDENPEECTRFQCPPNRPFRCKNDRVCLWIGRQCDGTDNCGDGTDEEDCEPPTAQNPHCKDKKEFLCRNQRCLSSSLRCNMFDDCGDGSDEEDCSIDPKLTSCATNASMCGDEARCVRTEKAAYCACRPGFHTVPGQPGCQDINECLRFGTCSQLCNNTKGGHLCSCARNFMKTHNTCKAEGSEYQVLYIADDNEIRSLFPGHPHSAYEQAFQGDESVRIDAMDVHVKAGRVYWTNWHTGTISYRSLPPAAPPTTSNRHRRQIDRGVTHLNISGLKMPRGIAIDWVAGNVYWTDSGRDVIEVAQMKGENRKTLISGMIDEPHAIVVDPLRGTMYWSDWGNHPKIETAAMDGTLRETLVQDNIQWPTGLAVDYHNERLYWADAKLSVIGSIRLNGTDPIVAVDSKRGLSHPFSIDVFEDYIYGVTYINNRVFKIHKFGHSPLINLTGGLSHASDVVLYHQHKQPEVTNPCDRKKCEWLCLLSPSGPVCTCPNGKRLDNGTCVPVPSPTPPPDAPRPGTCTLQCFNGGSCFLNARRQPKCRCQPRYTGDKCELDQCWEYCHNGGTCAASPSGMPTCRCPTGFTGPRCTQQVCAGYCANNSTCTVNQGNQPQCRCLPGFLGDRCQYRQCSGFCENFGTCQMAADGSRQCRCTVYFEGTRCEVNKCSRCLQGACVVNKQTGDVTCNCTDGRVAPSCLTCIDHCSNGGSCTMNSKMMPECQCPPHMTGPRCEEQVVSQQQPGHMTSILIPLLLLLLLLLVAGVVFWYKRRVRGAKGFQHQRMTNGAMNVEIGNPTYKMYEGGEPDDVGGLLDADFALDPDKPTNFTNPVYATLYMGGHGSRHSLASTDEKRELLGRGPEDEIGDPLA
"neurite outgrowth of primary embryonic sensory neurons cultured for 2 weeks with MMP-9-PEX (100 nM), quantified as GAP-43 mRNA compared to GST [1] [fold]","neurite outgrowth of primary embryonic sensory neurons cultured for 2 weeks with RBD, compared to GST controls [2] [fold]",Molecule
15,–,GST fusion protein of the hemopexin domain of matrix metalloprotease-9 (MMP-9-PEX) (domain or fragment)
–,> 40,GST fusion protein of the Receptor Binding Domain of α2-macroglobulin (RBD) (domain or fragment) GAATFTRTGKAAQVTIQSSGTFSSKFQVDNNNRLLLQQVSLPELPGEYSMKVTGEGCVYLQTSLKYNILPEKEEFPFALGVQTLPQTCDEPKAHTSFQISLSVSYTGSRSASNMAIVDVKMVSGFIPLKPTVKMLERSNHVSRTEVSSNHVLIYLDKVSNQTLSLFFTVLQDVPVRDLKPAIVKVYDYYETDEFAIAEYNAPCSKDLGNA
